The values below come from paper PMC9088798, “An Approach to Derive Functional Peptide Inhibitors of Transcription Factor Activity”.

One data set addresses T1, HingeW (designed).
T1 chain: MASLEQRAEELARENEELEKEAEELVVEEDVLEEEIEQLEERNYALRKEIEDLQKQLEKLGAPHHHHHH
Description: CD (281 nm DNA peak); EMSA: 150 mM KCl, 1 mM DTT, 1 mM EDTA, 10 mM Tris, 10 mM MgCl2, pH 8, 4 C, 30 min; CD: buffer with TCEP, pH 7.4, 30 min (rest not in material). As to conditions: protein: recombinant; tags: N-terminal MAS, C-terminal GAP-His6; blunt. Background: Mobility shift assays separate free from complexed probe on a gel.

Another data set concerns the target cJun bZIP (human, UniProt P05412). Description: CD (281 nm DNA peak); 20 uM cJun, 5 uM DNA; DNA peak decreases by 55%; EMSA: 150 mM KCl, 1 mM DTT, 1 mM EDTA, 10 mM Tris, 10 mM MgCl2, pH 8, 4 C, 30 min; CD: buffer with TCEP, pH 7.4, 30 min (rest not in material). As to conditions: protein: recombinant; tags: C-terminal GAP; His-SUMO cleaved off; chain copies: 2; blunt.

The target of another data set is T2, A-FosW (designed).
T2 chain: T1 chain with V26E, V27Q, E29L, V31E, E33Q, E34A
Nature of the data set: CD (281 nm DNA peak); 50 uM A-FosW, 5 uM DNA; EMSA: 150 mM KCl, 1 mM DTT, 1 mM EDTA, 10 mM Tris, 10 mM MgCl2, pH 8, 4 C, 30 min; CD: buffer with TCEP, pH 7.4, 30 min (rest not in material). Conditions: protein: recombinant; tags: N-terminal MAS, C-terminal GAP-His6; blunt.

Where a chain is given by its changes, count along the chain named.

Sequence of cJun bZIP (P05412 other isoform, or with tags, fused parts or gaps): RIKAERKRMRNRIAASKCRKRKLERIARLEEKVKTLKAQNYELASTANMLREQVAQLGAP

B1: TRE DNA (dsDNA)
DNA 1: GTCAGTCAGTGACTCAATCGGTCA
DNA 2: TGACCGATTGAGTCACTGACTGAC
Turning to B1, the binding result is on record as “no binding” with HingeW, “binds” with cJun bZIP and “no binding” with A-FosW.
